Tests used:
Assay type in all cases: cell-based
[1] = tested on: engineered chimeric receptor SEQ ID NO: 33 and its mutants (human α7-nAChR ligand binding domain / human GlyRα1 ion pore domain) in Lenti-X 293T cells; assay: YFP fluorescence quenching anion reporter plate reader assay (percent quench, EC50); settings: for YFP fluorescence quenching using CNL001 (percent quench): receptor named in row; for YFP fluorescence quenching using Varenicline, 3 nM var: ligand Varenicline 3 nM; for YFP fluorescence quenching using Varenicline, 30 nM var: ligand Varenicline 30 nM; for YFP fluorescence quenching using Varenicline, 300 nM var: ligand Varenicline 300 nM; for YFP fluorescence quenching using Varenicline, 500 nM var: ligand Varenicline 500 nM; for YFP fluorescence quenching using Varenicline, 1 uM var: ligand Varenicline 1 uM
Outline: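 Percent quench compares mean YFP signal over the final 10 s with the 15 s baseline before ligand, added in iodide-containing extracellular solution (pH 7.2). Cells were LX293T carrying a YFP anion reporter, transiently transfected with the channel construct; plates were preincubated 30 min at 37 °C.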

rat hippocampal neurons [2] = assay: Evoked rheobase shift, rat hippocampal neurons (current clamp)
Experimental: No holding current was applied to the membrane for cells included in the final datasets. Data acquisition settings and analysis methods were the same as for the DRG rheobase experiments.
Hippocampal neurons: Hippocampal rheobase experiments were performed in current clamp mode using a potassium-based internal solution containing (in mM): 115 potassium D-gluconate (G4500), 13 potassium chloride (P9333), 1 magnesium chloride hexahydrate (M2670), 5 magnesium ATP (A9187), 10 HEPES (54457), and 0.5 EGTA (3777) (pH=7.2 with potassium hydroxide, osmolarity=290-295 mOsm, calculated liquid junction potential=−14.9 mV. NBQX (10 μM) and AP5 (50 μM) were included in the bath to block excitatory synaptic transmission. To measure HC input resistance and rheobase, 500 ms current steps (−200 pA to 700 pA) were applied the membrane in the presence and absence of a compound. No holding current was applied to the membrane for cells included in the final datasets. Data acquisition settings and analysis methods were the same as for the DRG rheobase experiments.

rat hippocampal neurons [3] = assay: Spontaneous action potential firing rate, hippocampal neurons (current clamp)
Experimental: Spontaneous activity was recorded in gapfree mode, in the presence and absence of a compound. Data were acquired at 10 kHz, with Bessel filter at 2 kHz and series resistance compensation at 100%. No holding current was applied to the membrane. […] For Clampfit, threshold-based event detection was run separately for each epoch to detect action potentials. For the custom Python code, a peak-finding package was used to automatically detect action potentials (SciPy). For both methods, minimum height, average height, maximum height were measured and frequency was calculated as the number of events in the epoch divided by the length of time of the epoch. For Clampfit, the resting membrane potential was measured at 3 points between events and averaged for each epoch. […] For both methods, membrane potential was corrected for the calculated liquid junction potential. […]
Hippocampal spontaneous action potential experiments: Hippocampal spontaneous action potentials were recorded in current clamp mode using a potassium-based internal solution containing (in mM): 115 potassium D-gluconate (G4500), 13 potassium chloride (P9333), 1 magnesium chloride hexahydrate (M2670), 5 magnesium ATP (A9187), 10 HEPES (54457), and 0.5 EGTA (3777) (pH=7.2, osmolarity=290-295 mOsm, calculated liquid junction potential=−14.9 mV). Spontaneous activity was recorded in gapfree mode, in the presence and absence of a compound. […]

B1: CODA1140: engineered receptor: R101F, L131N, S172D in SEQ ID NO: 33 (protein)
chain: MRCSPGGVWLALAASLLHVSLQGEFQRKLYKELVKNYNPLERPVANDSQPLTVYFSLSLLQIMDVDEKNQVLTTNIWLQMSWTDHYLQWNVSEYPGVKTVFFPDGQIWKPDILLYNSADERFDATFHTNVNVNSSGHCQYLPPGIFKSSCPMDLKNFPMDVQTCKLKFGSWDYGGWSLDLQMQEADISGYIPNGEWDLVGIPGKRSERFYECCKEPYPDVTFTVTMRRRMGYYLIQMYIPSLLIVILSWISFWINMDAAPARVGLGITTVLTMTTQSSGSRASLPKVSYVKAIDIWMAVCLLFVFSALLEYAAVNFVSRQHKELLRFRRKRRHHKSPMLNLFQEDEAGEGRFNFSAYGMGPACLQAKDGISVKGANNSNTTNPPPAPSKSPEEMRKLFIQRAKKIDKISRIGFPMAFLIFNMFYWIIYKIVRREDVHNQ
modifications: synthetic sequence of chimeric LGIC
YFP fluorescence quenching using CNL001 (percent quench) ([1]; 1 nM CNL001, first column so headed): 52.592% | YFP fluorescence quenching using CNL001 (percent quench) ([1]; 1 nM CNL001, second column so headed): 61.248% | YFP fluorescence quenching (percent quench) ([1]; 1 nM CNL002): 0.337% | YFP fluorescence quenching using CNL001 (percent quench) ([1]; 10 nM CNL001, first column so headed): 71.678% | YFP fluorescence quenching using CNL001 (percent quench) ([1]; 10 nM CNL001, second column so headed): 71.881% | YFP fluorescence quenching (percent quench) ([1]; 10 nM CNL002): 59.894% | YFP fluorescence quenching using CNL001 (percent quench) ([1]; 50 nM CNL001, first column so headed): 73.807% | YFP fluorescence quenching using CNL001 (percent quench) ([1]; 50 nM CNL001, second column so headed): 75.649% | YFP fluorescence quenching (percent quench) ([1]; 50 nM CNL002): 76.501% | YFP fluorescence quenching using ABT-126 (percent quench) ([1]; 50 nM abt (ABT-126)): −7.87% | YFP fluorescence quenching using CNL001 (percent quench) ([1]; 100 nM CNL001, first column so headed): 76% | YFP fluorescence quenching using CNL001 (percent quench) ([1]; 100 nM CNL001, second column so headed): 76.329% | YFP fluorescence quenching (percent quench) ([1]; 100 nM CNL002): 79.03% | YFP fluorescence quenching using ABT-126 (percent quench) ([1]; 100 nM abt (ABT-126)): −5.35% | YFP fluorescence quenching using ABT-126 (percent quench) ([1]; 300 nM abt (ABT-126)): −3.67% | YFP fluorescence quenching using CNL001 (percent quench) ([1]; 1 uM CNL001, first column so headed): 76.168% | YFP fluorescence quenching using CNL001 (percent quench) ([1]; 1 uM CNL001, second column so headed): 74.076% | YFP fluorescence quenching (percent quench) ([1]; 1 uM CNL002): 82.85% | YFP fluorescence quenching using ABT-126 (percent quench) ([1]; 1 uM abt (ABT-126)): 3.64% | YFP fluorescence quenching using ABT-126 (percent quench) ([1]; 10 uM abt (ABT-126)): 5.91% | YFP fluorescence quenching (percent quench) ([1]; 10 uM ach (acetylcholine)): −20.07% | YFP fluorescence quenching (percent quench) ([1]; 30 uM ach (acetylcholine)): −16.92% | YFP fluorescence quenching (percent quench) ([1]; 100 uM ach (acetylcholine)): −25.8% | YFP fluorescence quenching (percent quench) ([1]; 300 uM ach (acetylcholine)): −11.21% | YFP fluorescence quenching (percent quench) ([1]; 1 mM ach (acetylcholine)): 9.02% | YFP fluorescence quenching (percent quench) ([1]; 3 mM ach (acetylcholine)): 45% | YFP fluorescence quenching using Varenicline, 3 nM var ([1]; first column): −6.169 | YFP fluorescence quenching using Varenicline, 3 nM var ([1]; second column): −10.445 | YFP fluorescence quenching using Varenicline, 30 nM var ([1]; first column): −9.679 | YFP fluorescence quenching using Varenicline, 30 nM var ([1]; second column): −10.878 | YFP fluorescence quenching using Varenicline, 300 nM var ([1]; first column): −9.572 | YFP fluorescence quenching using Varenicline, 300 nM var ([1]; second column): −8.873 | YFP fluorescence quenching using Varenicline, 500 nM var ([1]; first column): −14.656 | YFP fluorescence quenching using Varenicline, 500 nM var ([1]; second column): −11.304 | YFP fluorescence quenching using Varenicline, 1 uM var ([1]; first column): −13.996 | YFP fluorescence quenching using Varenicline, 1 uM var ([1]; second column): −16.128 | Rheobase Shift Evoked; Rat Hippocampal Neurons, Baseline (rat hippocampal neurons [2]; baseline, no ligand): 40.63 ± 10.50 pA | Rheobase Shift Evoked; Rat Hippocampal Neurons, +CNL002 @ EC90 (rat hippocampal neurons [2]; ligand CNL002 at EC90): 296.9 ± 72.65 pA | Firing Rate Spontaneous; Rat Hippocampal Neurons, Baseline (rat hippocampal neurons [3]; baseline, no ligand): 3.29 ± 0.75 Hz | Firing Rate Spontaneous; Rat Hippocampal Neurons, +CNL002 @ EC90 (rat hippocampal neurons [3]; ligand CNL002 at EC90): 0.71 ± 0.29 Hz

From patent US20250152742A1, “COMPOSITIONS AND METHODS FOR NEUROLOGICAL DISEASES” (Trames Bio, Inc., priority 2022, published 2025)
